# According to patent US20260108606A1, “TREATMENT OF AUTOIMMUNE DISEASES HAVING A PATHOGENIC T CELL STATE” (THE BRIGHAM AND WOMEN'S HOSPITAL, INC., priority 2023, published 2026):
# Tests used:
# Type in all cases: cell-based, mouse
# [1] = system: CD4+ T cells; experiment: Glycolytic rate assay using Seahorse (ECAR); details: WT cells differentiated with IL-1β+IL-6 with or without IL-23 (FIG. 12G)
# Description: FIG. 12A-12K—TCF1 deficiency obviates the need for IL-23 for Th17 pathogenicity. (FIG. 12A) Schematic view of in vitro differentiation with IL-1b and IL-6 for adoptive transfer experiments. (FIG. 12B-12D) CNS-infiltrating immune cells (FIG. 12B-12C) or immune cells from draining lymph nodes (dLN) (FIG. 12D) were harvested from mice at peak of disease (EAE score 1-5) and analyzed by flow cytometry. (FIG. 12B) Summary data of the frequency of Foxp3+ cells within the 2D2 cell population infiltrating the CNS (WT n=11; KO n=12). (FIG. 12C) Summary data of cytokine production by host CD4+ T cells infiltrating the CNS (WT n=10; KO n=12). (FIG. 12D) Summary data of the frequency of SLAMF6+ and CXCR6+ cells within 2D2+ cells in the dLN of recipients of 2D2 TCF1 WT (n=8) and TCF1cKO (n=10) cells. […] (FIG. 12I-12J) CNS-infiltrating 2D2 cells were harvested and FACS-sorted from mice at peak of disease (EAE score 1-5) and analyzed by confocal microscopy. […]
# Th17 pathogenicity is driven by IL-23 and has been associated with increased glycolytic activity and lipid metabolism, which in turn, supply crucial sterol ligands to boost RORγt transcriptional activity. […] The disclosure further assessed the intra-cellular lipid content of 2D2 TCF1 WT and 2D2 TCF1cKO cells isolated from the CNS of p19^−/− mice.
# [2] = system: TCF1; experiment: Th17 in vitro differentiation, TCF1 and RORγt expression by flow cytometry
# Description: (§1) Single-cell suspension were prepared from spleen and lymph nodes, and CD4 T cells isolated using the anti-CD4 microbeads (Miltenyi, catalogue #130-117-043). Subsequently, naïve CD4 T cells (CD62L^+ CD44^− CD25^−) were enriched through fluorescence activated cell sorting (FACS) performed on a BD FACSAria Ilu. Naïve CD4 T cells were activated for 3 days with 1 ug/ml of plate-bound anti-CD3 (BioXcell, BP0001) and anti-CD28 (BioXcell, BE0015), plus the addition of 20 ng/ml of IL-1B (R&D Systems), 25 ng/ml of IL-6 (R&D Systems), 20 ng/ml of IL-23 (R&D Systems), 20 ug/ml of anti-IFNγ (BioXcell, BE0055) and 20 μg/ml of anti-IL4 (BioXcell, BE0045) for pathogenic Th17; 2 ng/ml of TGFβ1, 25 ng/ml of IL-6, 20 μg/ml of anti-IFN and 20 μg/ml of anti-IL4 for non-pathogenic Th17. Cells were then rested in un-coated plates in absence of anti-CD3/anti-CD28 stimulation for 2 days. For some experiments, cells were re-stimulated with 1 ug/ml of anti-CD3/anti-CD28 for 1-2 days.
# (§2) Single-cell suspensions were firstly stained to discriminate live cells with UV Zombie (Biolegend) in PBS, and then in FACS buffer (2% bovine serum albumin in PBS) with antibodies for surface antigens. […] Fully stained samples were read either at a BD LSRFortessa or BD FACSymphony. The data were analyzed with FlowJo software (TreeStar) and GraphPad Prism software (GraphPad).
# [3] = system: Tcf7 locus; experiment: Tcf7 locus reporter (Tcf7-GFP) activity in Th17 cells; details: CD4 T cells of Tcf7 locus reporter strain, IL-1β+IL-6 with or without IL-23 for 3 days, then 2 days of rest (FIG. 8C)
# Description: as §1, §2
molecule,measurement,setting,value
"IL-23: a cytokine critical for inducing pathogenic Th17 cells (protein, UniProt Q9NPF7 20-189; P29460 23-328, looked up) Interleukin-23 subunit alpha: RAVPGGSSPAWTQCQQLSQKLCTLAWSAHPLVGHMDLREEGDEETTNDVPHIQCGDGCDPQGLRDNSQFCLQRIHQGLIFYEKLLGSDIFTGEPSLLPDSPVGQLHASLLGLSQLLQPEGHHWETQQIPSLSPSQPWQRLLLRFKILRSLQAFVAVAARVFAHGAATLSP Interleukin-12 subunit beta: IWELKKDVYVVELDWYPDAPGEMVVLTCDTPEEDGITWTLDQSSEVLGSGKTLTIQVKEFGDAGQYTCHKGGEVLSHSLLLLHKKEDGIWSTDILKDQKEPKNKTFLRCEAKNYSGRFTCWWLTTISTDLTFSVKSSRGSSDPQGVTCGAATLSAERVRGDNKEYEYSVECQEDSACPAAEESLPIEVMVDAVHKLKYENYTSSFFIRDIIKPDPPKNLQLKPLKNSRQVEVSWEYPDTWSTPHSYFSLTFCVQVQGKSKREKKDRVFTDKTSATVICRKNASISVRAQDRYYSSSWSEWASVPCS",glycolysis (extracellular acidification rate; ECAR),[1],increased glycolysis
same,TCF1 protein expression,"[2]; naïve CD4+ T cells differentiated with IL-1β and IL-6 for 2 days, then increasing doses of IL-23, dose-dependent (FIG. 1F)",decreased significantly
same,proportion of TCF1lo RORγt hi cells,"[2]; pTh17 differentiated for 3 days, then fresh IL-23 added in the culture media (FIG. 8D)",increased proportion
same,Tcf7 locus reporter activity,[3],significantly decreased
